The values below are quoted from earlier work in PMC10426772.

The target in data set [1] is IGF receptor (IGF1R, brain capillary) (Homo sapiens) (UniProt P08069). Description: radio-receptor assay with [125I]-IGF2.
Data set [2] addresses IGF receptor (human BBB) (Homo sapiens) (UniProt P08069). Kind of data set: radio-receptor assay.
Data set [3] addresses insulin receptor (HIR, brain capillary) (Homo sapiens) (UniProt P06213). Kind of data set: radio-receptor assay with [125I]-insulin.
Data set [4] deals with leptin receptor (Homo sapiens) (UniProt P48357). Description: radio-receptor assay.
Chain of leptin receptor (Homo sapiens) (P48357 22-839): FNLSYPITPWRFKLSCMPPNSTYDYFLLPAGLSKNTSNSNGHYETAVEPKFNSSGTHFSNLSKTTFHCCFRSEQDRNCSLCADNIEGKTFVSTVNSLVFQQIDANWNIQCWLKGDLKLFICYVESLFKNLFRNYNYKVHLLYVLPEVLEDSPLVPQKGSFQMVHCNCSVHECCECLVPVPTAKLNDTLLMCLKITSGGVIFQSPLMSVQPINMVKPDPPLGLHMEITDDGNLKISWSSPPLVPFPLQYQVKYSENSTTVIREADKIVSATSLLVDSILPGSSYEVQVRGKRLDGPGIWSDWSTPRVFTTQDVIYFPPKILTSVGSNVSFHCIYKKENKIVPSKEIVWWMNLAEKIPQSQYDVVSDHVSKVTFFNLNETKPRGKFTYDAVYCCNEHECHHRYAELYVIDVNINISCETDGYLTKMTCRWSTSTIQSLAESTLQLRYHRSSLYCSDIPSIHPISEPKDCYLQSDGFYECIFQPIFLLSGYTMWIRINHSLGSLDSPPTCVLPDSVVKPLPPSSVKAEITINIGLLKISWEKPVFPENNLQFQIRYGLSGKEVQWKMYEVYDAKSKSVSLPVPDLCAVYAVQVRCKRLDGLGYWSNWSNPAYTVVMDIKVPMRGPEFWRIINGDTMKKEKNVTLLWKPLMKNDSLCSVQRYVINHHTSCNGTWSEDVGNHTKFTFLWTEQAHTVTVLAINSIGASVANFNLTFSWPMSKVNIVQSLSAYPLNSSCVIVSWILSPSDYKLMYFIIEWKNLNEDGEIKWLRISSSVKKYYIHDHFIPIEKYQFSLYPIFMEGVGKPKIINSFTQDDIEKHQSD

Chain of insulin (P01308 90-110): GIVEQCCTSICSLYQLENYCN
Chain of leptin (P41159 22-167): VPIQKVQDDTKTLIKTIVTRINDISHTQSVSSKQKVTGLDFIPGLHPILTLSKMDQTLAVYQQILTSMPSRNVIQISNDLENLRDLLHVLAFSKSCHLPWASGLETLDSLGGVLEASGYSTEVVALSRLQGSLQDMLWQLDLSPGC

Broadly, the Kd is the constant that tells how readily two partners part at equilibrium. In the case of IGF2 (from UniProt P01344), the Kd in data set [1] and in data set [2] was 1.1 nM each time.

For the substance insulin (from UniProt P01308), the Kd in data set [3] was 1.2 nM. Consider leptin (from UniProt P41159), for which the Kd in data set [4] was 5.1 nM.
